This is an account of results in patent US20190388506A1.

Sequence of C3b (purified) (P01024 749-1663, chain 1 of 2): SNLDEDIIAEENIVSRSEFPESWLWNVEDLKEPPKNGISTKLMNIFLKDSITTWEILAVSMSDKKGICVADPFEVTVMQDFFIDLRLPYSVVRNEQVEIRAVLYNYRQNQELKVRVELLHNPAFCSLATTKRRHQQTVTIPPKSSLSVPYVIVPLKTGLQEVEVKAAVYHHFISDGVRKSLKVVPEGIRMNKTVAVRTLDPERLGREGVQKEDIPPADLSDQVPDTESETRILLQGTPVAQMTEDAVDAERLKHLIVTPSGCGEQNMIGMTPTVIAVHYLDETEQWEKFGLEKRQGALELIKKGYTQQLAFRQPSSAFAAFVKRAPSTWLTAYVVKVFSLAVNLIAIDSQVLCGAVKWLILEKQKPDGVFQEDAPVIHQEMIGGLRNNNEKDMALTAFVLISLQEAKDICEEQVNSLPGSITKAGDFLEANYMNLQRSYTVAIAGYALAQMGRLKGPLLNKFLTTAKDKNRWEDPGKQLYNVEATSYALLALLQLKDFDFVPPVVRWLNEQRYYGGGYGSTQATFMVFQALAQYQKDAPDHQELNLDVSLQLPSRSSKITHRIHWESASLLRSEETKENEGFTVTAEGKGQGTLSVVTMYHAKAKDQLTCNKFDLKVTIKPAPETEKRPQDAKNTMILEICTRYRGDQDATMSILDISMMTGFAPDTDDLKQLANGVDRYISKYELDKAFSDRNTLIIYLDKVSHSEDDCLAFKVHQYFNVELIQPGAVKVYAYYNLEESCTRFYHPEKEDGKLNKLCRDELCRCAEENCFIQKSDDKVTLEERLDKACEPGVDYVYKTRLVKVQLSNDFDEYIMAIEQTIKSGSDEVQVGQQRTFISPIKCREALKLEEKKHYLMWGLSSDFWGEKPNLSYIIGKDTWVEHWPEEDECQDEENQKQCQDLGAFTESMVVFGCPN
Sequence of C3b (purified) (P01024 23-667, chain 2 of 2): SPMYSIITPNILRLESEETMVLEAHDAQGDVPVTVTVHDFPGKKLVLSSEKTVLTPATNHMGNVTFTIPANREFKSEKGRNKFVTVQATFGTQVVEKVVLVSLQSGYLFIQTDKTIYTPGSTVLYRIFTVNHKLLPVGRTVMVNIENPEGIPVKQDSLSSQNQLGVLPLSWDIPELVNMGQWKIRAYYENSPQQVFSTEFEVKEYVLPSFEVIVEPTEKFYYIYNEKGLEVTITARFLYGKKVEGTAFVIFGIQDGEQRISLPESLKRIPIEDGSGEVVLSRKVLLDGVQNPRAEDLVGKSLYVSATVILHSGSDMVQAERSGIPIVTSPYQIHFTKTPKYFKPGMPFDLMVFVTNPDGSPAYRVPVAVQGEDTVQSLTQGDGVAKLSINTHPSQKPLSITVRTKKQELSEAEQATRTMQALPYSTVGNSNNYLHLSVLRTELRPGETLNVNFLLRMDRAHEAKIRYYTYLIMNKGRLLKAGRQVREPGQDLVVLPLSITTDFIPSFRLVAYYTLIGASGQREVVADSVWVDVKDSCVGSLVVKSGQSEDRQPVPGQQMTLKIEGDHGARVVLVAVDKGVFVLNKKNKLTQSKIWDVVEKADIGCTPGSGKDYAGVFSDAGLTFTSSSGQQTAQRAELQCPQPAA

The first test addresses C3b (purified) (UniProt P01024). Briefly: cell-based or functional assay.
Consider “FH fragment "SCR1-6" (SCR 1 to 6 of human factor H) (from UniProt P08603 19-388)”, for which the F1 cofactor (%) is 100%.
Same read-out and setting: the result for “FH fragment "1NT7" (SCR 1 to 7 of human factor H) (from UniProt P08603 19-447)” reads 100%.
The same measure, in the same setting: the result for “FH fragment "1NT18" (SCR 1 to 18 of human factor H) (from UniProt P08603 19-1102)” reads 100%; that for “FH fragment "SCR1-4" (SCR 1 to 4 of human factor H)”, 100%; that for “FH fragment "SCR6-8" (SCR 6 to 8 of human factor H)”, 0%.
Still for that read-out and setting: the result for “FH fragment "7CT18" (SCR 7 to 18 of human factor H) (from UniProt P08603 389-1102)” reads 0%.
As for “FH fragment "8CT20" (SCR 8 to 20 of human factor H) (from UniProt P08603 448-1231)”, the F1 cofactor (%) is 0%.
“FH fragment "7CT20" (SCR 7 to 20 of human factor H) (from UniProt P08603 389-1231)”: the F1 cofactor (%) came to 0%.

The target in the next test is C3 convertase (C3bBb) (human) (UniProt P01024). Briefly: cell-based or functional assay.
Sequence of C3 convertase (C3bBb) (human) (P01024 749-1663, chain 1 of 2): as the sequence (P01024 749-1663, chain 1 of 2) above
Sequence of C3 convertase (C3bBb) (human) (P00751 260-764, chain 2 of 2, further chain): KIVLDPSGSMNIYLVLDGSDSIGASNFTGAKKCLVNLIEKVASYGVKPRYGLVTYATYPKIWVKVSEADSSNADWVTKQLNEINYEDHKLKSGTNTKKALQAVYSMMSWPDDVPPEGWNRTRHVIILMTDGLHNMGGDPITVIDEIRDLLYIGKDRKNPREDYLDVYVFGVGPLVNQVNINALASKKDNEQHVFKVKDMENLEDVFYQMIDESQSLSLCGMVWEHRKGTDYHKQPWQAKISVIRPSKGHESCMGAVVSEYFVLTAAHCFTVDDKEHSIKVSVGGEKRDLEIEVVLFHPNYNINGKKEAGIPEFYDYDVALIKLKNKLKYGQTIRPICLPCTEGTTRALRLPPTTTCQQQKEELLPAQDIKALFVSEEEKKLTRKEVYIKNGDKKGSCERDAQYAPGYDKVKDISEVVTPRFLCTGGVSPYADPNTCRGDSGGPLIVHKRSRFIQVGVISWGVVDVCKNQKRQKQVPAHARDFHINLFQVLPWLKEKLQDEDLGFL
In turn, “FH fragment "SCR1-6" (SCR 1 to 6 of human factor H) (from UniProt P08603 19-388)” gave an Anti-C3 convertase (EC50 µg/ml) of 0.093 µg/mL.
